Measurements: paper doi:10.1101/2020.10.25.354548 (bioRxiv, 2020)

Target: SARS-CoV-2 spike protein receptor binding domain (RBD) (SARS-CoV-2, UniProt P0DTC2)
Experiment: ELISA

B1: bovine ACE2-Fc (bovine angiotensin I converting enzyme 2 fused to human IgG1 Fc) (Fc fusion)
chain: QSTTEEQAKTFLEKFNHEAEDLSYQSSLASWNYNTNITDENVQKMNEARAKWSAFYEEQSRMAKTYSLEEIQNLTLKRQLKALQHSGTSALSAEKSKRLNTILNKMSTIYSTGKVLDPNTQECLALEPGLDDIMENSRDYNRRLWAWEGWRAEVGKQLRPLYEEYVVLENEMARANNYEDYGDYWRGDYEVTGAGDYDYSRDQLMKDVERTFAEIKPLYEQLHAYVRAKLMHTYPSYISPTGCLPAHLLGDMWGRFWTNLYSLTVPFEHKPSIDVTEKMENQSWDAERIFKEAEKFFVSISLPYMTQGFWDNSMLTEPGDGRKVVCHPTAWDLGKGDFRIKMCTKVTMDDFLTAHHEMGHIQYDMAYAAQPYLLRNGANEGFHEAVGEIMSLSAATPHYLKALGLLAPDFHEDNETEINFLLKQALTIVGTLPFTYMLEKWRWMVFKGEIPKQQWMEKWWEMKREIVGVVEPLPHDETYCDPACLFHVAEDYSFIRYYTRTIYQFQFHEALCKTAKHEGALFKCDISNSTEAGQRLLQMLRLGKSEPWTLALENIVGIKTMDVKPLLNYFEPLFTWLKEQNRNSFVGWSTEWTPYSDQSIKVRISLKSALGENAYEWNDNEMYLFQSSVAYAMRKYFSEARNETVLFGEDNVWVSDKKPRISFKFFVTSPNNVSDIIPRTEVENAIRLSRDRINDVFQLDDNSLEFLGIQPTLGPPYEPPVT
EC50: 1.3 nM
